# Results reported in patent US10202627B2, “Method for producing trehangelin” (THE KITASATO INSTITUTE, priority 2016, dated 2019).
# B1: OrfB: enzyme protein encoded by SEQ ID NO: 4, 3-ketoacyl-CoA synthase from Polymorphospora rubra K07-0510 (protein)
# chain: MSTSTVIGTGSYLPRRVLSSGELARRVGVAENWIVEKTGIRERRVAADEEATSDLATRAARRALRTARLDPADVDLIVLATSTPDRPMPATASTVQANLGARQAVAFDVDAVCSGFVYALVVAHSMLNSEGWARTALVIGADTYSRVLDYTDRRTAVLFGDGAGAVVLGRETGGGSGIRATTLGTDGTLADLVQIPAGGSRRPASAQTVEAGDHYFAMRGGDVRRLANQVFPALVGQLLKAASLDLDQVDLIAAHQANGTMLTDWSRDLGLRPGVLHRTVERYGNTGAASVPVTLDDAVRTGRLGAAATLLMVAFGGGMTWGGVALDWSADPSVPRSNCVR
# modifications: Polymorphospora rubra K07-0510; CDS (1)..(1026)
# B2: OrfA: enzyme protein encoded by SEQ ID NO: 2, enoyl-CoA hydratase from Polymorphospora rubra K07-0510 (protein)
# chain: VTRPDAPGPPVAAPDPADAVVTAVEPYVVRATINRPARRNAIDLAVIEGLERAIDLAEATGARVLVLRGAGGTFCSGADLRVLEEMSVDPHRVETFMVRLALVLRRLETARFVSVAVVEGHAVAGGCEILLACDVSVAATDARIGDRHLEYGLVPAAGGSVRLARTLPKARGNYLLLAADLLTGEQAAQWGLVSVAVPPTDLEPRVDALVGRLVGHSADALAVVKKMVWTADHEPRPDAMSWERRLFLRHLGSEDVSEGLRAFRERRRPAFRADD
# modifications: Polymorphospora rubra K07-0510; CDS (1)..(828)
# B3: OrfC: enzyme protein encoded by SEQ ID NO: 6, acyltransferase from Polymorphospora rubra K07-0510 (protein)
# chain: MTTSALGAEPGATDPPAAPPVSYAPSGRMPRTINRWPRPFAPRNILGVLRARLRGATISLNQVKFDESTAERNALVMEHALLRHSHVARYAIVGPFTSLFKVRVGPYAGIAEKVTVGALPHWPELPTSHVFPVNAEFGFCAGEWPEVPGTEVGADAWIGAGAVVRAGVRIGHGAIVAAGAVVTRDVADYEIVAGVPARRLRSRFPDDLAERLVALAWWDWPPGFIKANIDLFQRPLTADTLAALEERARALPTPPGGAA
# modifications: Polymorphospora rubra K07-0510; CDS (1)..(780)
# B4: OrfD: enzyme protein encoded by SEQ ID NO: 8, 3-ketoacyl-CoA reductase from Polymorphospora rubra K07-0510 (protein)
# chain: VTAGTGQPVVAAPGRALADRVVVVTGASRGVGRDLARVFADHGARLGLLARSRDALDDLGGTLTAAGADVLAVPCDVGEPDSLAGAVDAVAGHFGGIDSVVVNAGISPVARRAHHLPIDAWHDVLATNLTGGFVTARAAYPHLARSGRGRLVFTTSVMAATPRRGLSAYAASKAGLEGLTRALAADWAGDGILVNAVAPGFFDTGLGAAFHTSQRLHEQVVGRTPVARFGRADELAAAFVFLAGDACGYLTGQVLAVDGGYGLG
# modifications: Polymorphospora rubra K07-0510; CDS (1)..(795)
# Assays:
# [1] = tested on: animal cells (particularly, human cells); details: cited from earlier work
# [2] = 3-ketoacyl-CoA synthase activity of recombinant OrfB, LC/MS; format: biochemical; details: 2.5 μg orfB, 250 μM acetyl-CoA, 250 μM methylmalonyl-CoA, pH 7.5, 27° C., 16 hours
# Description: (§1) A substrate of the target enzyme is added to the reaction solution. Specifically, in a 3-ketoacyl-CoA synthase activity assay, acetyl-CoA and methylmalonyl-CoA are added. In a 3-ketoacyl-CoA reductase activity assay, 2-methylacetoacetyl-CoA is added. In an enoyl-CoA hydratase activity assay, 3-hydroxy-2-methylbutyryl-CoA is added. In an acyltransferase activity assay, angelyl-CoA is added. The concentration of the substrate may be any concentration as far as it has no effect on the reaction, and is suitably 0.01 mM to 0.2 M of the reaction solution. The enzyme concentration for the reaction is not particularly limited, and is usually in a range of 0.001 mg/ml to 100 mg/ml.
# (§2) The activity may be detected by a method that can measure a decrease of substrates or an increase of reaction products during the reaction. Examples of such methods include a method that separates and quantifies a target substance optionally by using thin layer chromatography, column chromatography, high-performance liquid chromatography (HPLC) and the like. […]
# Next, it was examined whether the obtained recombinant enzyme protein (OrfB) catalyses production of 2-methylacetoacetyl-CoA from acetyl-CoA and methylmalonyl-CoA by employing the following reaction conditions. […] After termination of the reaction by adding 100 μl of methanol, it was analysed on LC/MS.
# [3] = enoyl-CoA hydratase activity of recombinant OrfA, LC/MS; format: biochemical; details: 15.8 μg orfA with orfB and orfD, 500 μM NADPH, pH 7.5, 27° C., 16 hours
# Description: as §1, §2
# (§3) Next, it was examined whether the obtained recombinant enzyme protein (OrfA) catalysed production of angelyl-CoA from 3-hydroxy-2-methylbutyryl-CoA by employing the following reaction conditions. […] After termination of the reaction by adding 100 μl of methanol, it was analysed on LC/MS.
# [4] = acyltransferase activity of OrfC inferred from Streptomyces albus/pOSV556-orfABCD culture; format: cell-based, Streptomyces albus J1074; details: inferred from Examples 1 to 4
# Description: Streptomyces albus/pOSV556-orfABCD was grown by shake culture in 10 ml of a liquid medium containing 1% yeast extract and 1% glucose at 27° C. for 1 day, which was then added 1 ml of 20% trehalose aqueous solution, and the shake culture was continued at 27° C. for 4 more days. The obtained culture medium was added 10 ml of ethanol and stirred for 1 hour. Ethanol in the extract was then removed by distillation under reduced pressure, and 5 ml of ethyl acetate was added to the obtained aqueous solution, which was thoroughly stirred, and then the ethyl acetate phase was collected. After concentration to dryness, the solid was dissolved in 100 μl of methanol and analysed on LC/MS to confirm production of trehangelin (FIG. 1).
# [5] = 3-ketoacyl-CoA reductase activity of recombinant OrfD, LC/MS; format: biochemical; details: 0.8 μg orfD with 2.5 μg orfB, 500 μM NADPH, pH 7.5, 27° C., 16 hours
# Description: as §1, §2
# as §3, with “(OrfD)” for “(OrfA)”, “3-hydroxy-2-methylbutyryl-CoA” for “angelyl-CoA”, “2-methylacetoacetyl-CoA” for “3-hydroxy-2-methylbutyryl-CoA”
molecule,measurement,setting,value
C/C=C(/C)C(=O)OC1C(O)C(CO)OC(OC2OC(CO)C(O)C(OC(=O)/C(C)=C\C)C2O)C1O (stereo not drawn) [Trehangelin A],"toxicity towards animal cells (particularly, human cells)",[1],do not exhibit toxicity
C/C=C(/C)C(=O)OC1C(OC2OC(CO)C(O)C(OC(=O)/C(C)=C\C)C2O)OC(CO)C(O)C1O (stereo not drawn) [Trehangelin B],"toxicity towards animal cells (particularly, human cells)",[1],do not exhibit toxicity
B1,production of 2-methylacetoacetyl-CoA from acetyl-CoA and methylmalonyl-CoA,[2],production of 2-methylacetoacetyl-CoA was observed
B2,production of angelyl-CoA from 3-hydroxy-2-methylbutyryl-CoA,[3],production of angelyl-CoA was observed
B3,acyltransferase activity (trehangelin from angelyl-CoA and trehalose),[4],had an acyltransferase activity
B4,production of 3-hydroxy-2-methylbutyryl-CoA from 2-methylacetoacetyl-CoA,[5],production of 3-hydroxy-2-methylbutyryl-CoA was observed
